Measured values: patent US20200087367A1 (ACCELERON PHARMA, published 2020)

How the values were obtained:
BMP10 = target: T1, BMP10 (human, UniProt O95393 317-424); test: SPR (Biacore), ligand amine-coupled to chip, Fc fusion injected
T1 construct: also called hBMP-10; hBMP10
T1 sequence: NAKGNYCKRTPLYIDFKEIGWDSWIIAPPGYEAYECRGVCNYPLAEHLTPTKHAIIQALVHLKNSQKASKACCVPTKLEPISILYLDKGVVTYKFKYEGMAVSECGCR

BMP5 = target: T2, BMP5 (human, UniProt P22003 317-454, limits assumed); test: as above
T2 sequence (looked up): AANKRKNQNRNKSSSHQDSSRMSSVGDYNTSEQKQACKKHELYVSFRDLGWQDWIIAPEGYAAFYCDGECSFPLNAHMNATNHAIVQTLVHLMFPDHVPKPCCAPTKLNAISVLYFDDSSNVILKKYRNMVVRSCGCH

BMP9 = target: T3, BMP9 (human, UniProt Q9UK05 320-429); test: SPR (Biacore), ligand amine-coupled to chip, Fc fusion injected; the hFc form had only transient affinity for BMP9
T3 construct: also called hBMP-9; hBMP9
T3 sequence (looked up): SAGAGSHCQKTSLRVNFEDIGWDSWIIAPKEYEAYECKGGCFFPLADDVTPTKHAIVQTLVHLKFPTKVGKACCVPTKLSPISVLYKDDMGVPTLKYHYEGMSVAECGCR
Description: Ligands were immobilized on a Biacore™ CMS chip using standard amine-coupling procedure.

B1: ActRIIB(L79D 25-131)-mFc (Fc fusion)
chain: ETRECIYYNANWELERTNQSGLERCEGEQDKRLHCYASWRNSSGTIELVKKGCWDDDFNCYDRQECVATEENPQVYFCCCEGNFCNERFTHLPEAGGPEVTYEPPPT
notes: not shown: linker and mouse Fc domain
binding result (BMP10): binds
binding result (BMP5): no binding
binding result (BMP9): binds
